Our source for the Kd values is paper PMC10786891, “Massively parallel profiling of RNA-targeting CRISPR-Cas13d”.

To fix the notation:
T1: EsCas13d, nuclease-dead (Eubacterium siraeum, UniProt B0MS50, R295A;H300A;R849A;H854A)
T1 sequence: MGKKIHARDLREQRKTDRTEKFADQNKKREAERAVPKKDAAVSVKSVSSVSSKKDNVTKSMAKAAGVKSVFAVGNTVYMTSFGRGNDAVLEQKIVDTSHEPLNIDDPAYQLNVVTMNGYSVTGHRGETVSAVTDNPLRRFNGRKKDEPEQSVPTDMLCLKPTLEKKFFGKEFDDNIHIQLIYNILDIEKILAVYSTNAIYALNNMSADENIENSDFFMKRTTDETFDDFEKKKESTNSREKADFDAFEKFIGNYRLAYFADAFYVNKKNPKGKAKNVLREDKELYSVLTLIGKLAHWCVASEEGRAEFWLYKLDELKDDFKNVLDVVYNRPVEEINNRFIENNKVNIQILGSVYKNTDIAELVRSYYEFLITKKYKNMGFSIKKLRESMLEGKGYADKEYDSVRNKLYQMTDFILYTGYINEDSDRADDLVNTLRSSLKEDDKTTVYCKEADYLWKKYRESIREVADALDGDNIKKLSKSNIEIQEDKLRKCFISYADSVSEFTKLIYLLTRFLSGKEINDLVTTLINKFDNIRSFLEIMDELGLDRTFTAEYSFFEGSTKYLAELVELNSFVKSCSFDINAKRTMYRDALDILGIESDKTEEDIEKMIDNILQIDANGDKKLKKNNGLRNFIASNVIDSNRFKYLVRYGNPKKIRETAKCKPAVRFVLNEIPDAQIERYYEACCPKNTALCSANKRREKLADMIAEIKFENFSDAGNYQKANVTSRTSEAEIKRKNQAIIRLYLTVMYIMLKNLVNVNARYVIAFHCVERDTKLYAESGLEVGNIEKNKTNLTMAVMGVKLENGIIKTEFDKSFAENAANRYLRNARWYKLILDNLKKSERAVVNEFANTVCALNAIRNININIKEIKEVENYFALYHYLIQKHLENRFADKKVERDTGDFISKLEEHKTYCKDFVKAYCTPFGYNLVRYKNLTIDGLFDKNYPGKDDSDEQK

B1: target 1 MT 5'PFS GAG 3'PFS UCG (mixed)
RNA 1: CACCCGUGCAAAAAUGCAGGGGUCUAAAACUGAGCGGAUAACCUCUCUAUGG
RNA 2: GGGAAUGGAUCCACAUCUACGAAUUCGAGCCAUAGAGAGGUUAUCCGCUCAUCGAGAUCGGAAGAGCACACGU
B2: target 1 insC 3' of 12,insG 3' of 4 (mixed)
RNA 1: CACCCGUGCAAAAAUGCAGGGGUCUAAAACUGAGCGGAUAACCUCUCUAUGG
RNA 2: GGGAAUGGAUCCACAUCUACGAAUUCGUACCAUAGAGAGGCUUAUCCGCGUCACCGAGAUCGGAAGAGCACACGU
B3: target 1 C4A,A18U (mixed)
RNA 1: CACCCGUGCAAAAAUGCAGGGGUCUAAAACUGAGCGGAUAACCUCUCUAUGG
RNA 2: GGGAAUGGAUCCACAUCUACGAAUUCGUACCAUUGAGAGGUUAUCCGAUCACCGAGAUCGGAAGAGCACACGU
B4: target 2 MT 5'PFS CGG 3'PFS CAC (mixed)
RNA 1: CACCCGUGCAAAAUUGCAGGGGUCUAAAACCUUCUCCAAAUUGUUUCAUCCU
RNA 2: GGGAAUGGAUCCACAUCUACGAAUUCCGGAGGAUGAAACAAUUUGGAGAAGCACAGAUCGGAAGAGCACACGU
B5: target 2 MT 5'PFS AUU 3'PFS CUC (mixed)
RNA 1: CACCCGUGCAAAAUUGCAGGGGUCUAAAACCUUCUCCAAAUUGUUUCAUCCU
RNA 2: GGGAAUGGAUCCACAUCUACGAAUUCAUUAGGAUGAAACAAUUUGGAGAAGCUCAGAUCGGAAGAGCACACGU
B6: target 2 MT 5'PFS UGA 3'PFS AUU (mixed)
RNA 1: CACCCGUGCAAAAUUGCAGGGGUCUAAAACCUUCUCCAAAUUGUUUCAUCCU
RNA 2: GGGAAUGGAUCCACAUCUACGAAUUCUGAAGGAUGAAACAAUUUGGAGAAGAUUAGAUCGGAAGAGCACACGU
B7: target 2 MT 5'PFS CGG 3'PFS CAA (mixed)
RNA 1: CACCCGUGCAAAAUUGCAGGGGUCUAAAACCUUCUCCAAAUUGUUUCAUCCU
RNA 2: GGGAAUGGAUCCACAUCUACGAAUUCCGGAGGAUGAAACAAUUUGGAGAAGCAAAGAUCGGAAGAGCACACGU
B8: target 2 MT 5'PFS UCG 3'PFS UCA (mixed)
RNA 1: CACCCGUGCAAAAUUGCAGGGGUCUAAAACCUUCUCCAAAUUGUUUCAUCCU
RNA 2: GGGAAUGGAUCCACAUCUACGAAUUCUCGAGGAUGAAACAAUUUGGAGAAGUCAAGAUCGGAAGAGCACACGU
B9: target 2 MT 5'PFS UAG 3'PFS AAG (mixed)
RNA 1: CACCCGUGCAAAAUUGCAGGGGUCUAAAACCUUCUCCAAAUUGUUUCAUCCU
RNA 2: GGGAAUGGAUCCACAUCUACGAAUUCUAGAGGAUGAAACAAUUUGGAGAAGAAGAGAUCGGAAGAGCACACGU
B10: target 2 MT 5'PFS UGA 3'PFS AUA (mixed)
RNA 1: CACCCGUGCAAAAUUGCAGGGGUCUAAAACCUUCUCCAAAUUGUUUCAUCCU
RNA 2: GGGAAUGGAUCCACAUCUACGAAUUCUGAAGGAUGAAACAAUUUGGAGAAGAUAAGAUCGGAAGAGCACACGU
B11: target 2 MT 5'PFS AGG 3'PFS AUC (mixed)
RNA 1: CACCCGUGCAAAAUUGCAGGGGUCUAAAACCUUCUCCAAAUUGUUUCAUCCU
RNA 2: GGGAAUGGAUCCACAUCUACGAAUUCAGGAGGAUGAAACAAUUUGGAGAAGAUCAGAUCGGAAGAGCACACGU
B12: target 2 MT 5'PFS CGG 3'PFS CAG (mixed)
RNA 1: CACCCGUGCAAAAUUGCAGGGGUCUAAAACCUUCUCCAAAUUGUUUCAUCCU
RNA 2: GGGAAUGGAUCCACAUCUACGAAUUCCGGAGGAUGAAACAAUUUGGAGAAGCAGAGAUCGGAAGAGCACACGU
B13: target 2 MT 5'PFS UAG 3'PFS CCU (mixed)
RNA 1: CACCCGUGCAAAAUUGCAGGGGUCUAAAACCUUCUCCAAAUUGUUUCAUCCU
RNA 2: GGGAAUGGAUCCACAUCUACGAAUUCUAGAGGAUGAAACAAUUUGGAGAAGCCUAGAUCGGAAGAGCACACGU
B14: target 2 MT 5'PFS UAG 3'PFS CCG (mixed)
RNA 1: CACCCGUGCAAAAUUGCAGGGGUCUAAAACCUUCUCCAAAUUGUUUCAUCCU
RNA 2: GGGAAUGGAUCCACAUCUACGAAUUCUAGAGGAUGAAACAAUUUGGAGAAGCCGAGAUCGGAAGAGCACACGU
B15: target 2 MT 5'PFS AUU 3'PFS CUG (mixed)
RNA 1: CACCCGUGCAAAAUUGCAGGGGUCUAAAACCUUCUCCAAAUUGUUUCAUCCU
RNA 2: GGGAAUGGAUCCACAUCUACGAAUUCAUUAGGAUGAAACAAUUUGGAGAAGCUGAGAUCGGAAGAGCACACGU
B16: target 2 MT 5'PFS UAG 3'PFS AAA (mixed)
RNA 1: CACCCGUGCAAAAUUGCAGGGGUCUAAAACCUUCUCCAAAUUGUUUCAUCCU
RNA 2: GGGAAUGGAUCCACAUCUACGAAUUCUAGAGGAUGAAACAAUUUGGAGAAGAAAAGAUCGGAAGAGCACACGU
B17: target 2 MT 5'PFS UAG 3'PFS AAU (mixed)
RNA 1: CACCCGUGCAAAAUUGCAGGGGUCUAAAACCUUCUCCAAAUUGUUUCAUCCU
RNA 2: GGGAAUGGAUCCACAUCUACGAAUUCUAGAGGAUGAAACAAUUUGGAGAAGAAUAGAUCGGAAGAGCACACGU
B18: target 2 MT 5'PFS UGA 3'PFS AUC (mixed)
RNA 1: CACCCGUGCAAAAUUGCAGGGGUCUAAAACCUUCUCCAAAUUGUUUCAUCCU
RNA 2: GGGAAUGGAUCCACAUCUACGAAUUCUGAAGGAUGAAACAAUUUGGAGAAGAUCAGAUCGGAAGAGCACACGU
B19: target 2 MT 5'PFS AUU 3'PFS CUA (mixed)
RNA 1: CACCCGUGCAAAAUUGCAGGGGUCUAAAACCUUCUCCAAAUUGUUUCAUCCU
RNA 2: GGGAAUGGAUCCACAUCUACGAAUUCAUUAGGAUGAAACAAUUUGGAGAAGCUAAGAUCGGAAGAGCACACGU
B20: target 2 MT 5'PFS CGG 3'PFS CAU (mixed)
RNA 1: CACCCGUGCAAAAUUGCAGGGGUCUAAAACCUUCUCCAAAUUGUUUCAUCCU
RNA 2: GGGAAUGGAUCCACAUCUACGAAUUCCGGAGGAUGAAACAAUUUGGAGAAGCAUAGAUCGGAAGAGCACACGU
B21: target 2 MT 5'PFS AUU 3'PFS UCC (mixed)
RNA 1: CACCCGUGCAAAAUUGCAGGGGUCUAAAACCUUCUCCAAAUUGUUUCAUCCU
RNA 2: GGGAAUGGAUCCACAUCUACGAAUUCAUUAGGAUGAAACAAUUUGGAGAAGUCCAGAUCGGAAGAGCACACGU
B22: target 2 MT 5'PFS UAG 3'PFS CCA (mixed)
RNA 1: CACCCGUGCAAAAUUGCAGGGGUCUAAAACCUUCUCCAAAUUGUUUCAUCCU
RNA 2: GGGAAUGGAUCCACAUCUACGAAUUCUAGAGGAUGAAACAAUUUGGAGAAGCCAAGAUCGGAAGAGCACACGU
B23: target 2 MT 5'PFS UAG 3'PFS AAC (mixed)
RNA 1: CACCCGUGCAAAAUUGCAGGGGUCUAAAACCUUCUCCAAAUUGUUUCAUCCU
RNA 2: GGGAAUGGAUCCACAUCUACGAAUUCUAGAGGAUGAAACAAUUUGGAGAAGAACAGAUCGGAAGAGCACACGU

This data set addresses T1, EsCas13d, nuclease-dead. In words: crRNA (strand 1, pre-loaded); Mg2+; 40 mM Tris-HCl pH 7.5, 150 mM NaCl, 6 mM MgCl2, 1 mM DTT, 0.1% Tween-20, 0.2 mg/ml BSA; 25 C; 10 min per concentration, then washed. To be noted: tags: His6-TwinStrep-SUMO cleaved; N-terminal SNAP kept (SNAP-Surface 488); label: 3' end held by stalled T7 RNA polymerase.
As to B1, the dissociation constant Kd (in general, the free concentration of one partner at which half of the binding sites on the other are occupied at equilibrium, for simple one-to-one binding) worked out at 42 ± 16 nM.

The molecule B2 had a Kd of 5.7 ± 0.5 nM.

In turn, B3 had an equilibrium dissociation constant (Kd) of 21.1 ± 2.4 nM.

B4 showed an equilibrium dissociation constant (Kd) of 6.8 ± 1.3 nM.

For the molecule B5, the affinity, expressed as Kd, was 16.6 ± 3.1 nM.

As to B6, binding was characterised by a dissociation constant (Kd) of 7.5 ± 1.3 nM.

In the case of B7, the Kd is 3.4 ± 0.5 nM.

On to B8, for which binding was put at a Kd of 21 ± 5 nM.

On to B9, for which the Kd turned out to be 2.87 ± 0.28 nM.

For B10, the dissociation constant Kd came out at 7.1 ± 1.4 nM.

The molecule B11 returned a Kd of 5.5 ± 0.6 nM.

Take B12: the Kd is 4.3 ± 0.6 nM.

In turn, B13 registered a Kd of 54 ± 17 nM.

For the molecule B14, binding was characterised by a dissociation constant (Kd) of 2.56 ± 0.17 nM.

In turn, B15 showed a Kd of 9.7 ± 1.3 nM.

Molecule B16 showed a dissociation constant (Kd) of 2.2 ± 0.4 nM.

As to B17, the dissociation constant (Kd) was determined as 3.8 ± 0.5 nM.

Molecule B18 returned a Kd of 8.7 ± 1.1 nM.

Consider B19, for which the Kd amounted to 14 ± 4 nM.

Molecule B20 displayed a Kd of 4.4 ± 0.5 nM.

B21: the affinity, expressed as Kd, was 16.7 ± 1.8 nM.

The molecule B22 yielded a dissociation constant (Kd) of 5.1 ± 0.4 nM.

On to B23, for which the equilibrium dissociation constant (Kd) is 3.6 ± 0.4 nM.
